Test: soluble on expression in E. coli; label from the status in PepcDB or PDB records

| Sequence | soluble on expression in E. coli |
| --- | --- |
| MPDGGLAAPDRAVLPRAMTPPPSTSRTYDAVIVGGGHNGLVAAAYLARAGRSVLVLERLDHTGGAAVSTKPFAGVDARLSRYSYLVSLLPKKIVRDLGLDFRVRARTVSSYTPVERAGRPTGLLVGGGERRTRESFARLTGSQREYDAWQRFYAMTGHVAQRVFPTLTEPLPTRDELRRRVDDETAWRALFEEPVGVAIEEHFDDDLVRGVALTDALIGTFADAHDPSLAQNRCFLYHVIGGGTGAWDVPVGGMGALTDALAGAARAAGAVLATGHEAVRIEADGHGAEVTFRSADGEGVAAARHVLVNASPRELAALTGDAPPAPAEGAQLKVNMLLTRLPRLRDPDADPREAFAGTFHIAEGYEQLAAAHARAAAGELPAAPPSEIYCHSLTDPTILGPGPAAKGMHTLTLFGLHTPARLFARDNDAVRAELLKSTLAQLDAHLAEPLADCLATDADGRPCIEARSPLDLERDLGLPGGNIFHRELSWPHAQEGTGHWGVETGRARVLLCGAGAVRGGGVSGVPGHNAAMAVLDGTTGLEHHHHHH | not soluble |
| MGSDKIHHHHHHMITTDSGEQVEALAPIIISASRSTDIPAFYAKWFFNRLAKGYCVWYNPFNRRKMYVSFERCKAIVFWTKNPKLILPYLHELDRRGIHYYFQFTLNDYVSEGFEPNVPSVTQRVETFRELSEMIGKERVIWRFDPLIMTPSITPRVLLSRIWKIGNLLKGYTDKLVFSFVDVKAYRKVQNNLIKETNCFTKEDVETAEMNATQRQETVEGLVKLREIWASTGWNVTLATCAEDIDLTVYGIEHNRCIDGDLMERVFEEDYELVYYLRTGQLPEPDLFGTFPALPDKRKDLKDKGQRKACGCMISKDIGRYNTCRHFCVYCYANTSRECVQKNAVHYSDDSESLIRS | not soluble |
| MKYNNHDKIRDFIIIEAYMFRFKKKVKPEVDMTIKEFILLTYLFHQQENTLPFKKIVSDLCYKQSDLVQHIKVLVKHSYISKVRSKIDERNTYISISEEQREKIAERVTLFDQIIKQFNLADQSESQMIPKDSKEFLNLMMYTMYFKNIIKKHLTLSFVEFTILAIITSQNKNIVLLKDLIETIHHKYPQTVRALNNLKKQGYLIKERSTEDERKILIHMDDAQQDHAEQLLAQVNQLLADKDHLHLVFE | soluble |
| MGSSHHHHHHSSGLVPRGSHMRIAIVVPYLAKVEGNKIALILASKLAKNNEVFVVSYAVKDSIIDEVNSLISPAKFFYQKAISNGRYGIRFAIKYQLLKGVDRKMANLLKALMPLDIYLVISNEGHWIPIYFDKAYGTKSALVVMELHDHGFISAGNDPLRFPILRTVLASPAYGLAKVIEYKRFKSFDILFANSKWTQIVFQYLYGLPVSGILFGIDTEVFKPTPSKFSEMNFIAVPTISLKKDYYGRRLISKLAKDGIPLLSYGPIKIEGVKHLGYLSQDEMVKILSAAKATLFLFNYEALGLIPFESLACGTPVITYPKQGPLVELSDNPNVIYFREYEELLKNCRLHLNSAKDEMTINKCRESVLKYDISKVSVDVEQLFQTIIFNKNKS | soluble |
| AELLLSDNEDKKQRIKEEKQLKLVKWNFQAPTDEHISQLQTLLGNQAKVSLMSQLFHKDFKQHLAALDSLVRLADTSPRSLLSNSDLLLKWCTLRFFETNPAALIKVLELCKVIVELIRDTETPMSQEEVSAFVPYLLLKTGEAKDNMRTSVRDIVNVLSDVVGPLKMTPMLLDALKSKNARQRSECLLVIEYYITNAGISPLKSLSVEKTVAPFVGDKDVNVRNAAINVLVACFKFEGDQMWKAAGRMADKDKSLVEERIKRTGV | soluble |
| MGSDKIHHHHHHMKVRFLQISDLHFQFQNYDTIVMRDKLLDFIEVLRRESDFDFLLLTGDIAHKGDVYNEDVKEYLNGIIKSMGLSKNNVHLVPGNHDISRDMTRTLLIDSIMKSPNPSEMLDKLDQKATNILVEGQRKFFDFYEDFMGVKYPEEDLHFLYQSEKYNVLSINTCLLSDKKGEEGTLLTAQMKLYKAIRKMNKEKNKGKVLNIAIGHHTLGCIESSERESIKAHFDDYFIDLYLAGHVHDSSFNITANTNENPFLELVSGAIIKDEYATPEFISVDVNLDNGETEVTYYIWNTEYKYWSKNNQGGRRLQEGKLNYKINRLESLIEKEIEDNDDKIDEDEFKSFIIDFHEYRESYKTFTSNFDNQIGLDKKFYDMKSGETFKRKFDSYSEYFGVINHIMDSTSYVSADKKELIAETIVDKYLEFHNQYNNGDEIFVKIVNEIYLECHSVLPYSKALTKKYIKILTCWCIYECEIFNDNKRSVKND | not soluble |

Source: the DeepSol protein solubility set
